Measurements published in patent US7795390B2, “Biological substance nesfatin and its related substances and uses thereof” (Teijin Pharma Limited, priority 2005, dated 2010).

Legend:
Zucker +/+ (Lean) rats = experiment: nesfatin-1 administration into the third ventricle of Zucker +/+ (Lean) rats, food intake; format: in vivo, rat; conditions: recombinant mouse nesfatin-1 5 pmol
Method: (§1) As rats, 8 week-old male Zucker fa/fa (Zucker) rats and Zucker +/+(Lean) rats as the control animal were purchased from Nippon Charles River, and were housed in a cycle of 12 hours of the light period from 6 a.m. to 6 p.m. and 12 hours of the dark period from 6 p.m. to 6 a.m. the next morning and fed a powder food (Nippon Clea, CE-2), and kept at 22° C., and throughout the experiment period, a similar condition was continued in housing. After preliminary housing of the purchased rats for over one week, individuals weighing 200-250 g were selected from among 9 to 10 week-old individuals.
(§2) The sample used for administration was one in which the recombinant mouse nesfatin-1 prepared in Working Example 16 was dissolved to 5 pmol in 5 μl of PBS, and as the control sample physiological saline (Saline) was used. Five μl of the samples prepared were administered into the third ventricle of each rat for the group of five each of Zucker rats and the Lean rats per group (the Zucker/nesfatin-1 group, the Lean/nesfatin-1 group, the Zucker/Saline group, the Lean/Saline group). […]
(§3) After intraventricular administration, the amount of food intake was determined by measuring the amount decreased of the powder food for each rat during 0-1 hour, 1-3 hours and 3-6 hours. […]

Zucker fa/fa rats = experiment: nesfatin-1 administration into the third ventricle of Zucker fa/fa rats, food intake; format: in vivo, rat; conditions: recombinant mouse nesfatin-1 5 pmol
Method: as §1, §2, §3

rats = experiment: Continuous administration of nesfatin-1 into the rat ventricle, weight of adipose tissue; format: in vivo; conditions: 5 pmol per day, third ventricle, 10 days; vs saline
Method: Nesfatin-1 (5 pmol per day) or physiological saline alone (the control group) was administered into the third ventricle of a rat using an osmotic pump for 10 consecutive days (5 and 4 rats were used per group). Intraventricular administration into rats by the osmotic pump was carried out in a manner similar to that in Working Example 13.
After the administration of nesfatin-1 or physiological saline alone for 10 days, each rat was sacrificed, dissected to excise all of the abdominal subcutaneous adipose tissue, the epididymal adipose tissue (these are white adipose tissue) and the retroperitoneal brown adipose tissue, and the weight of them was measured. Also, the gastrocnemial muscles of the bilateral hind legs were harvested and the weight of them was measured. From the weight of the tissues measured, their ratio to the body weight of each individual was determined (tissue weight/body weight, mg/g). For testing of significant difference, analysis of variance was used.

Wistar rats = experiment: Intraventricular continuous administration of nesfatin-1 by osmotic pump, food intake and body weight; format: in vivo, rat
Method: The administration of nesfatin-1 was carried out into the ventricle by an osmotic pump for 10 consecutive days. Among 8 week-old male Wistar rats (purchased from Nippon SLC), those individuals weighing 200-250 g were used. The rats received intraperitoneal administration of 40 mg/kg body weight of pentobarbital sodium for anesthesia. After the hair was removed from the head, they were fixed in a brain stereotaxic apparatus (David Kopf Instruments, Model 962) and the scalp was incised and a 23G needle (guide cannula) was implanted so that the tip reaches the third ventricle (2.5 mm behind the bregma, 9.5 mm from the surface). One week after implanting the guide cannula, the animals were subjected to the experiment. The osmotic pump used was Alzet's Model 2002. Nesfatin-1 (nesfatin-1 administration group) dissolved in physiological saline that was filter-sterilized with a 0.22 μm Millex GV filter (Millpore Co. Ltd.), or sterilized physiological saline alone (control group) were injected into the osmotic pump immediately before use, and were primed in sterilized physiological saline from the day before use. The osmotic pump to which each sample was connected to a tube connected to the injection cannula, and through the guide cannula previously implanted the injection cannula was fixed so that the tip of the cannula reaches the third ventricle of the rat. In this form of use, the sample is injected to the third ventricle at a flow rate of 12 μl per 24 hours, and in the nesfatin-1 administration group, it is equivalent to 5 pmol of nesfatin-1 per day administered to the ventricle. […] The measurement of the amount of food intake started from the day after the cannula and the osmotic pump were implanted, and the weight of the residual food was measured at 9 a.m. every day, and by determining the difference from the weight of the food on the previous day, the amount of food intake of the day (24 hours) was calculated. From day 6 after the start of administration, body weight was measured at the time of measuring the amount of food intake, and changes in body weight were also recorded.

[1] = 0-1 hour and 1-3 hours, P<0.001 vs Saline
[2] = 5 pmol per day, osmotic pump, third ventricle, 10 consecutive days, vs saline

B1: nesfatin-1: 82-residue peptide, amino acid Nos. 25 to 106 of nesfatin (SEQ ID NO: 15), solid-phase synthesis (peptide, listed as Rattus norvegicus)
chain: VPIDVDKTKVHNVEPVESARIEPPDTGLYYDEYLKQVIEVLETDPHFREKLQKADIEEIRSGRLSQELDLVSHKVRTRLDEL
- amount of food intake (Zucker +/+ (Lean) rats; [1]): decreased
- amount of food intake (Zucker +/+ (Lean) rats; 3-6 hours): No difference
- amount of food intake (Zucker fa/fa rats; [1]): significant reduction
- amount of food intake (Zucker fa/fa rats; 3-6 hours, P<0.05): significant reduction
- ratio of tissue weight to body weight, abdominal subcutaneous adipose tissue (rats): significant decreases
- ratio of tissue weight to body weight, brown adipose tissue (rats): no significant difference
- ratio of tissue weight to body weight, epididymal adipose tissue (rats): significant decreases
- ratio of tissue weight to body weight, gastrocnemial muscle (rats): no significant difference
- ratio of tissue weight to body weight, mesenteric adipose tissue (rats): significant decreases
- ratio of tissue weight to body weight, retroperitoneal adipose tissue (rats): tended to decrease but no significant difference
- amount of food intake of the day (24 hours) (Wistar rats; [2]): a decrease in the amount of food intake was noted from day 1
- rate of increase in body weight (Wistar rats; [2]): significantly declined
- food intake and/or body weight gain (Wistar rats; recombinant highly purified nesfatin-1 (Working Example 16), intraventricular as in Working Example 13): the effect of suppressing food intake and/or suppressing body weight gain was noted
